Test results published in PMC6160157.

What was measured:
[1] = molecular target: HA tri-stalk protein (HA amino acids 403-474 of the pandemic strain A/Luxembourg/43/2009(H1N1)) (Influenza A virus A/Luxembourg/43/2009(H1N1)); experiment: crystal structure
[2] = molecular target: HA tri-stalk protein (HA amino acids 403-474 of the pandemic strain A/Luxembourg/43/2009(H1N1)) (Influenza A virus A/Luxembourg/43/2009(H1N1)); experiment: SEC

## HA tri-stalk protein (HA amino acids 403-474 of the pandemic strain A/Luxembourg/43/2009(H1N1)) (domain or fragment)
[1]
  stoichiometry N: 3
[2]
  stoichiometry N: 3
